Assay [1] addresses human CD40L protein translated from transfected CD40L mRNA (pCR2.1 CD40L WT, >100 nucleotide poly-A tail) (human) (UniProt P29965). In words: cell-based or functional assay.
For assay [2], the target named is CD40, the cognate receptor molecule for CD40L, on human monocyte-derived dendritic cells (human) (UniProt P25942). In words: cell-based or functional assay.

2 substances from patent US20120269832A1 can be followed below.

UniProt P25942, sequence (P25942 21-277): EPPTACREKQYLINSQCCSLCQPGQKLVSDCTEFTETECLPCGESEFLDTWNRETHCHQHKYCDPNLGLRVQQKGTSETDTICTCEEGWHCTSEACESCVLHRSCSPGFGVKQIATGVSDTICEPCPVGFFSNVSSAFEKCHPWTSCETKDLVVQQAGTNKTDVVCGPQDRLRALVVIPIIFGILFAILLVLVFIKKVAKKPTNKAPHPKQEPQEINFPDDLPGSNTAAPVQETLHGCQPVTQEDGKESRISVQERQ

Consider “blocking CD40L monoclonal antibody 24-31 (eBioscience)”, for which, in assay [1], the IL-12p70 (pg/ml), "Cocktail" matured and reactivated DCs co-cultured with HeLa/>100 polyA + IFN-γ + 24-31 worked out at 2.5 pg/mL; the IL-12 p70 release from CD40L mRNA-transfected DCs cultured with IFN-γ and 10 or 50 µg/ml blocking anti-CD40L antibody worked out at 50%.

In the case of “human CD40L protein translated from transfected CD40L mRNA (pCR2.1 CD40L WT, >100 nucleotide poly-A tail) (from UniProt P29965 1-261) (ligand)”, in assay [2], the IL-12p70 (pg/ml), "Cocktail" matured and reactivated DCs co-cultured with HeLa/>100 polyA + IFN-γ is 26.3 pg/mL; the IL-12p70 (pg/ml), immature DCs co-cultured with HeLa/>100 polyA + IFN-γ was found to be 372 pg/mL.
